{"source": "patent US6905817B1", "about": "“Ret-independent signaling pathway for GDNF” (Licestia Ltd., priority 1998, dated 2005)", "molecules": {"B1": {"name": "Glial cell line—derived neurotrophic factor (protein, UniProt P39905 78-211, looked up)", "Glial cell line-derived …": "SPDKQMAVLPRRERNRQAAAANPENSRGKGRRGQRGKNRGCVLTAIHLNVTDLGLGYETKEELIFRYCSGSCDAAETTYDKILKNLSRNRRLVSDKVGQACCRPIAFDDDLSFLDDNLVYHILRKHSAKRCGCI", "notes": "TGF-β family-related neurotrophic protein; from PeproTech and donated by Cephalon, Inc"}}, "key": {"[1]": {"test_system": "wild type mouse DRG neurons", "assay": "GDNF-evoked [Ca^2+]i changes, confocal microscopy with Calcium Green-1AM, wild type DRG neurons", "type": "cell-based", "description": "(§1) DRG from embryonic day 18 (E18) mice were treated with trypsin (Worthington), non-neuronal cells removed by preplating, and about 95% pure neurons cultured on poly-ornithine-laminin-coated glass coverslips in Ham's F14 medium (Imperial Laboratories) with serum substitute containing NGF, BDNF and NT-3 (all from PeproTech, 2 ng/ml if each) for at least 1 day before measurement. Neurotrophins were extensively washed out before GDNF application. GDNF was from PeproTech and donated by Cephalon, Inc. Ret-deficient mice (Schuchardt et al., 1994) were identified from heterozygote matings by the absence of kidneys and PCR-based genotyping. GFRα2-deficient mice were obtained from homozygote matings (Rossi et al., 1999).\n(§2) [Ca^2+]i was measured using a Bio-Rad MRC-1024 confocal microscope equipped with an argon-krypton laser. The cells were loaded with 10 μM Calcium Green-1AM (Molecular Probes), a membrane permeable Ca^2+ dye, by 30 min incubation in serum free cell-culture media at 37 ° C. and 5 % CO2. After loading, the neurons were kept at room temperature in Dulbecco's PBS solution contained 20 mM HEPES (pH=7.4) for at least 20 min prior to the experiments. All compounds were applied to the bath by a peristaltic pump. 6 kD Heparin (Sigma) and Alexa 568 nm fluorescent dye (Molecular Probes) were loaded into the cells using Molecular Probes' pinocytotic influx loading reagent basically according to the manufacturer instructions. […] Cell injection was performed using Eppendorf microinjection system. The average intensity of fluorescence in the predefined ROI (Region Of Interest) was measured on-line using TimeCourse software from BioRad. The calibration of fluorescence traces was performed in vitro using Fmax and Fmin values obtained with the calcium calibration buffer kit (Molecular Probes). Because the calibration solutions may not reflect the intracellular environment, the experimental data are presented as delta [Ca^2+]i calculated using Kd=190 nM for Calcium Green-1."}, "[2]": {"test_system": "Ret^−/− DRG neurons", "assay": "GDNF-evoked [Ca^2+]i changes, confocal microscopy, Ret^−/− DRG neurons", "type": "cell-based, mouse", "description": "as §1, §2"}, "[3]": {"test_system": "p42/p44 MAP kinases", "assay": "MAPK phosphorylation assay in Ret^−/− DRG neurons", "type": "cell-based, mouse", "conditions": "GDNF 100 ng/ml", "description": "(§3) To assess GDNF-dependent MAPK and CREB phosphorylation in all studied cell lines, the semiconfluent cell monolayers were starved for 3 hours in serum-free medium, and then GDNF was applied for the indicated time. For the analysis of MAPK and CREB activation in Ret^−/− animals the DRG neurons were dissected from E18 mice and maintained in NGF-containing medium for 2 hours. After this time the neurons were deprived of NGF by placing them in NGF-free medium in the presence of anti-NGF antibodies. After 2 hr without NGF, the neurons were stimulated with GDNF. In the experiments involving Src-kinase inhibition, a Src-family kinase inhibitor PP2 was added at the indicated concentrations to the cell monolayers 5 min before GDNF application. In some experiments 1 μg/ml of soluble GFRα1 lacking a GPI anchor (GFRα1/Fc chimeric protein; R&D systems) was added 5 min prior to the GDNF application and was kept in the solution during the GDNF treatment, After stimulation, the cells were briefly washed with PBS/sodium vanadate and lysed in the buffer containing TBS, 2 mM EDTA, 1% NP-40, 1% Triton X-100, 1 mM PMSF, 1 mM Na3VO4 and a Complete, protease inhibitors cocktail (Boehringer Mannheim). Total cell protein for each extract was measured by MicroBSA (Pierce) and an equivalent amount of protein was resolved electrophoretically on 10% polyacrylamide gels. […]"}, "[4]": {"test_system": "p42/p44 MAPK", "assay": "MAPK phosphorylation assay in SHEP neuroblastoma cells", "type": "cell-based, human", "conditions": "GDNF 100 ng/ml", "description": "as §3"}, "[5]": {"test_system": "CREB", "assay": "CREB Ser-133 phosphorylation assay in SHEP cells", "type": "cell-based, human", "conditions": "GDNF treatment", "description": "as §3"}, "[6]": {"test_system": "CREB-related protein ATF-1", "assay": "ATF-1 phosphorylation in SHEP cells", "type": "cell-based, human", "conditions": "GDNF treatment", "description": "as §3"}, "[7]": {"test_system": "MAPK", "assay": "MAPK phosphorylation in parental NIH3T3 fibroblasts lacking both Ret and GFRα1", "type": "cell-based", "conditions": "GDNF 100 ng/ml alone", "description": "as §3"}, "[8]": {"test_system": "PLCγ", "assay": "PLCγ tyrosine phosphorylation (immunoprecipitation and Western blotting) in SHEP cells", "type": "cell-based, human", "description": "To determine changes in GDNF-evoked PLCγ tyrosine phosphorylation the Western blotting assays were performed as described in Khare et al. (1997). Briefly, SHEP neuroblastoma cells were pre-incubated with 1 mM sodium vanadate in serum-free medium for 30 min. at 37 ° C. and then were treated at 37 ° C. with 1-100 ng/ml GDNF for 1 min. unless otherwise indicated. Incubation was stopped by the addition of ice-cold PBS buffer containing 1 mM sodium vanadate. Whole cell lysates (final protein concentration 0.1-0.3 mg/ml) were prepared at 4° C. in an extraction buffer (pH 7.5) containing 50 mM Tris-HCl, 137 mM NaCl, 1 mM sodium vanadate, 1 mM PMSF, 10% glycerol, 1% NP-40 and protease inhibitors cocktail (Boehringer). Phosphotyrosine-containing proteins were immunoprecipitated with 4G-10 antibodies (Upstate Biotechnology), collected with Protein A Sepharose beads and separated on the 7.5% SDS-PAGE. The proteins were transferred to Hybond-ECL nitrocellulose membrane, and PLCγ was assessed by Western blotting using anti-PLCγ antibodies (Upstate Biotechnology). In some experiments we first immunoprecipitated PLCγ from the cell lysate using anti-PLCγ antibodies and probed the filter with anti-phosphotyrosine 4G-10 antibodies as described above. […]"}, "[9]": {"test_system": "JNK", "assay": "JNK phosphorylation assay in SHEP cells", "type": "cell-based, human", "conditions": "GDNF 100 ng/ml", "description": "as §3"}, "[10]": {"test_system": "Ret^−/− DRG neurons", "assay": "Survival of Ret^−/− DRG neurons in culture", "type": "cell-based, mouse", "conditions": "unpublished observations and Taraviras et al., 1999"}}, "note": "Entries after “also recorded” stand apart in the source; their conditions may differ.", "data": [{"molecule": "B1", "values": [{"measurement": "wild type DRG neurons in which GDNF-evoked changes in [Ca^2+]i were observed", "setting": "[1]", "value": "60-70%"}, {"measurement": "change in [Ca^2+]i", "setting": "[1]; GDNF 10 ng/ml", "value": "induced a rapid transient increase in [Ca^2+]i"}, {"measurement": "change in [Ca^2+]i", "setting": "[1]; GDNF concentrations over 10 ng/ml (10-100 ng/ml)", "value": "evoked rapid and long-lasting elevations in [Ca^2+]i; also recorded: evoked both a transient and slow long-lasting elevation in [Ca^2+]i"}, {"measurement": "Ret^−/− DRG neurons with long-lasting [Ca^2+]i elevation", "setting": "[2]; 10-100 ng/ml GDNF", "value": "60-70%"}, {"measurement": "change in [Ca^2+]i", "setting": "[2]; 10-100 ng/ml GDNF", "value": "long-lasting [Ca^2+]i elevation"}, {"measurement": "fast [Ca^2+]i rise", "setting": "[2]; GDNF", "value": "never observed a GDNF-dependent fast [Ca^2+]i rise"}, {"measurement": "change in [Ca^2+]i (calcium entry)", "setting": "[2]; GDNF 100 ng/ml in nominally Ca^2+ free external solution (about 20 μM)", "value": "evoked a massive [Ca^2+]i overshoot and substantially slower decay kinetics; also recorded: resulted in a profound increase in [Ca^2+]i"}, {"measurement": "activation (phosphorylation) of MAPK", "setting": "[3]", "value": "several-fold rapid activation of MAPK"}, {"measurement": "p42/p44 MAPK phosphorylation", "setting": "[4]", "value": "transient and profound increase of p42/p44 MAPK phosphorylation"}, {"measurement": "phosphorylation of CREB in Ser-133 site", "setting": "[5]", "value": "potently induced phosphorylation of CREB"}, {"measurement": "phosphorylation / activation of ATF-1", "setting": "[6]", "value": "induced phosphorylation of the CREB-related protein ATF-1; also recorded: robust GDNF-dependent activation of the CREB-related protein ATF-1"}, {"measurement": "MAPK phosphorylation", "setting": "[7]", "value": "did not evoke any MAPK phosphorylation"}, {"measurement": "time to return to basal tyrosine phosphorylation levels of PLCγ", "setting": "[8]; GDNF", "value": "≤ 5", "unit": "min"}, {"measurement": "PLCγ tyrosine phosphorylation", "setting": "[8]; GDNF 1-100 ng/ml, 1 min", "value": "significantly increased PLCγ tyrosine phosphorylation; also recorded: dose-dependent increase in PLCγ tyrosine phosphorylation"}, {"measurement": "JNK activation (phosphorylation)", "setting": "[9]", "value": "did not evoke JNK activation; also recorded: did not affect the phosphorylation of JNK"}, {"measurement": "survival of Ret^−/− DRG neurons in culture", "setting": "[10]", "value": "not been shown to stimulate survival"}]}]}
